Measured values taken from patent US20160324962A1, “COMPOSITIONS AND METHODS FOR TREATING SARCOMA” (MEDIMMUNE, LLC, priority 2013, published 2016).

Tests used:
KHOS xenograft model = assay: Xenograft efficacy study in mice; format: in vivo; settings: KHOS xenografts, MEDI-573 alone
Description: (§1) Although proliferation of SK-ES-1 and SJCRH30 cells was inhibited by MEDI-573 in vitro in the absence of exogenous IGFs, the in vivo growth of these two models was not effected by MEDI-573 treatment.
(§2) For in vivo efficacy studies, five million sarcoma cells in 50% matrigel were inoculated subcutaneously into each female athymic nude mice. When tumors reach approximately 150-200 mm^3, mice were randomly assigned into groups (10 mice per group). MEDI-573 was administrated intraperitoneally twice per week at indicated doses. The dose regimen for AZD2014 was oral once every day, for rapamycin was intraperitoneal injection every 3 days. Tumor volumes were measured twice weekly with calipers. Tumor growth inhibition was calculated on the last day of study relative to the initial and final mean tumor volume of the control group.

SJCRH30 = assay: Xenograft efficacy study in mice; format: in vivo; settings: SJCRH30 model
Description: as §1, §2

[1] = test system: SJSA-1 (an osteosarcoma model) xenografts; assay: Xenograft efficacy study in mice; format: in vivo; settings: SJSA-1 xenografts, MEDI-573 alone
Description: as §1, §2

SK-ES-1 = assay: Xenograft efficacy study in mice; format: in vivo; settings: SK-ES-1 model
Description: as §1, §2

IGF-1 in RD-ES tumors = target: T1, IGF-1 in RD-ES tumors (Homo sapiens, UniProt P05019); assay: Free IGF ligands in xenograft tumors (ELISA); format: in vivo, mice; settings: different amounts of MEDI-573
T1 construct: endogenous in cells; host or cells: RD-ES (Ewing's sarcoma) xenograft tumors in athymic nude mice
Description: (§3) Free IGF ligands were measured in xenograft tumors in untreated mice and in mice treated with different amounts of MEDI-573. […] Despite KHOS cells being unresponsive to IGF-1 and/or IGF-2 stimulation, IGF-2 levels were examined in a KHOS/NP model.
(§4) Sarcoma cell lines were purchased from American type Culture Collection (Manassas, Va.). CellTiter-Glo reagents were obtained from Promega (Madison, Wis.). Whole cell lysate kits for pIGF-1R, pIR-A, and pAKT were purchased from Meso Scale Discovery (MSD; Rockville, Md.). ELISA kits for total IGF-1 and IGF-1R were purchased from R&D Systems (Minneapolis, Minn.). ELISA kits for total IGF-2 were purchased from Insight Genomics (Falls Church, Va.). An ELISA kit for detecting free IGF-1 and IGF-2 was developed in house. Human IGF-1 and IGF-2 were obtained from R&D Systems (Minneapolis, Minn.). Antibodies for detecting phospho-AKT, phospho-4EBP1, phospho-S6K, and GAPDH were from Cell Signaling Technology (Beverly, Mass.).

IGF-2 in SJSA-1 tumors = target: T2, IGF-2 in SJSA-1 tumors (Homo sapiens, UniProt P01344); assay: Free IGF ligands in xenograft tumors (ELISA); format: in vivo, mouse xenograft; settings: even at the lowest dose of 10 mg/kg
T2 construct: endogenous in cells; host or cells: SJSA-1 (osteosarcoma) xenograft tumors in athymic nude mice
Description: as §3, §4

[2] = target: T3, human IGF-2 in KHOS/NP model (Homo sapiens, UniProt P01344); assay: Free IGF ligands in xenograft tumors (ELISA); format: in vivo, mouse xenograft; settings: up to 60 mg/kg
T3 construct: endogenous in cells; host or cells: KHOS/NP (osteosarcoma) xenograft tumors in athymic nude mice
Description: as §3, §4

IGF-1R phosphorylation = assay: pIGF-1R assay in sarcoma cells (MSD); format: cell-based
Description: When exogenous IGF-1 or IGF-2 was added to cells, there was an induction of phosphorylation of IGF-1R and IR-A in all cells examined.
The sarcoma lines were cultured overnight in complete medium. The following day, medium containing 0.1% charcoal stripped fetal bovine serum (FBS) was added to the cultures and the cultures incubated overnight. The next day, cells were treated with various treatments for 5 minutes. Media was removed; cells were washed and lysed with 1.0% Triton X lysis buffer with protease and phosphatase inhibitors. Approximately 8-20 μg of total protein was loaded on MSD 96-Well MULTI-SPOT plates and the level of total and phosphorylated IGF-1R, IR-A and IRS-1 protein was determined using the Insulin Signaling Panel (total protein) and Insulin Signaling Panel (phosphoprotein) Whole Cell Lysate kits according to the manufacturers protocol. The level of total and phosphorylated AKT was determined using the Phospho (Ser473)/Total AKT Assay Whole Cell Lysate kit according to manufacturer's standard protocol.

p4EBP1 [3] = assay: In vivo mechanism of action study, immunoblot of tumors; set-up: species or system mice
Description: (§5) The in vivo effects of MEDI-573 on IGF signaling were also examined in sarcoma xenografts. To be consistent with in vitro experiments, in vivo pharmacodynamic studies were performed in two ways. First, the effect of MEDI-573 on signaling that was induced by IGF ligands, which were secreted by tumors in an autocrine manner, was examined. A single dose of MEDI-573 was given to mice bearing ˜400 mm^3 RD-ES, SJSA-1, or KHOS/NP tumors.
(§6) IGF-1/-2 injection did change the baseline level of p4EBP-1.
(§7) For in vivo mechanism of action (MOA) studies, when tumors reached approximately 400 mm^3, a single dose of MEDI-573 was given. Tumor and plasma samples were collected 4 hr after dosing to assess the effect of MEDI-573 on autocrine IGF signaling. In another set of mice, 6 hr after MEDI-573 dosing, human IGF-1 or IGF-2 was injected by tail-vein. Tumor and plasma samples were collected 15 min after IGFs injection to assess the effect of MEDI-573 on IGF-1/-2 induced signaling.

pAKT = assay: as above; set-up: species or system mice
Description: as §5, §6, §7

RD-ES cells = assay: Cytotoxicity assay, MEDI-573 and mTOR inhibitors; format: cell-based; settings: agents alone or in combination (FIG. 14)
p4EBP1 [4] = assay: Immunoblot of cell lysates after MEDI-573, mTORi, combination; format: cell-based; settings: single agent, 4 hours
Description: (§8) To examine the effect of MEDI-573, mTORi, and combination of both on IGF signaling, RD-ES, SJSA-1, and KHOS cells were treated with these agents for 4 hours. After separation of the cell lysates by gel electrophoresis, the proteins were detected by immunoblotting.

pS6K = assay: as above; format: cell-based; settings: RD-ES and SJSA-1 cells, 4 hours
Description: as §8

[5] = RD-ES tumors ~400 mm^3, single dose, 4 hr after dosing
[6] = RD-ES-bearing mice injected with human IGF-1/-2, MEDI-573 pretreatment

T1 sequence (P05019 49-118): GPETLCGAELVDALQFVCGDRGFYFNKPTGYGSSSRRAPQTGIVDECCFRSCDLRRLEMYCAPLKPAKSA
T3 sequence (P01344 25-91): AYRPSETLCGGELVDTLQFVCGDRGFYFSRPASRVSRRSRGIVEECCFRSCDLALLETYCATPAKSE
T2 sequence (P01344 25-91): as above

free IGF-1 in tumors (IGF-1 in RD-ES tumors): dose-dependent suppression | free IGF-2 in tumors (IGF-2 in SJSA-1 tumors): almost completely neutralized | human IGF-2 levels in tumors [2]: Dose-dependent inhibition
B1: MEDI-573: fully human monoclonal IgG2 lambda antibody that binds IGF-2 with cross reactivity to IGF-1; hybridoma 7.159.2, ATCC PTA-7424 (antibody)
heavy: QVQLVQSGAEVKKPGASVKVSCKASGYTFTSYDINWVRQATGQGLEWMGWMNPNSGNTGYAQKFQGRVTMTRNTSISTAYMELSSLRSEDTAVYYCARDPYYYYYGMDVWGQGTTVTVSSASTKGPSVFPLAPCSRSTSESTAALGCLVKDYFPEPVTVSWNSGALTSGVHTFPAVLQSSGLYSLSSVVTVPSSNFGTQTYTCNVDHKPSNTKVDKTVERKCCVECPPCPAPPVAGPSVFLFPPKPKDTLMISRTPEVTCVVVDVSHEDPEVQFNWYVDGVEVHNAKTKPREEQFNSTFRVVSVLTVVHQDWLNGKEYKCKVSNKGLPAPIEKTISKTKGQPREPQVYTLPPSREEMTKNQVSLTCLVKGFYPSDIAVEWESNGQPENNYKTTPPMLDSDGSFFLYSKLTVDKSRWQQGNVFSCSVMHEALHNHYTQKSLSLSPGK
light: QSVLTQPPSVSAAPGQKVTISCSGSSSNIENNHVSWYQQLPGTAPKLLIYDNNKRPSGIPDRFSGSKSGTSATLGITGLQTGDEADYYCETWDTSLSAGRVFGGGTKLTVLGQPKAAPSVTLFPPSSEELQANKATLVCLISDFYPGAVTVAWKADSSPVKAGVETTTPSKQSNNKYAASSYLSLTPEQWKSHRSYSCQVTHEGSTVEKTVAPTECS
response in vivo (KHOS xenograft model): did not respond | in vivo growth (SJCRH30): not effected | tumor growth inhibition [1]: Comparable results | in vivo growth (SK-ES-1): not effected | autophosphorylation of IGF-1R (IGF-1R phosphorylation; RD-ES, TC-71, SK-ES-1, and SJSA-1 cells): inhibited autophosphorylation | IGF-1/-2-induced activation of IGF-1R (IGF-1R phosphorylation; pretreatment with MEDI-573, exogenous IGF-1 or IGF-2): inhibited | phosphorylated p4EBP1 in tumors (p4EBP1 [3]; KHOS/NP tumors, single dose): not in KHOS/NP tumors | phosphorylated p4EBP1 in tumors (p4EBP1 [3]; [5]): inhibited | p4EBP-1 in tumors (p4EBP1 [3]; [6]): inhibited p4EBP-1 even below the baseline level | autophosphorylation of pAKT in tumors (pAKT; KHOS/NP tumors, single dose): not in KHOS/NP tumors | autophosphorylation of pAKT in tumors (pAKT; [5]): inhibited autophosphorylation | IGF-induced pAKT in tumors (pAKT; [6]): dramatic reduction | decrease in cell viability (RD-ES cells): 56% | phosphorylation of 4EBP1 (p4EBP1 [4]): did not have effect | phosphorylation of S6K (pS6K): inhibited phosphorylation of S6K
